The target in the experiment is PAC1 receptor (human) (UniProt P41586). Description: cell-based or functional assay.
PAC1 receptor (human), sequence (P41586 21-468): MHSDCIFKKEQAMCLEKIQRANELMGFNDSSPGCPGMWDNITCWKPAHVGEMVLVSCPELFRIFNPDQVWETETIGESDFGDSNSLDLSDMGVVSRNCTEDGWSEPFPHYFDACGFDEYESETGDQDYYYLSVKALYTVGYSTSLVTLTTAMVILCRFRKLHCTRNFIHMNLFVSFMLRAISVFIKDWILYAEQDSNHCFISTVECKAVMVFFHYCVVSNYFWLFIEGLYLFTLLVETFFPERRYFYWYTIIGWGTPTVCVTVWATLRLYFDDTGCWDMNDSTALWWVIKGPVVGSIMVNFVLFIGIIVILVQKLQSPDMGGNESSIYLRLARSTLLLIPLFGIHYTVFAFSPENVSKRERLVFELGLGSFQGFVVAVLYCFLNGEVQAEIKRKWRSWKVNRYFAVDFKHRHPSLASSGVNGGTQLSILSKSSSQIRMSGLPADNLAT

For the substance “PACAP38 analog with nipecotic acid in position 3 (peptide)”, the fold lower potency as inhibitor of multiple myeloma cell proliferation, against the corresponding analog with pipecolic acid in position 3 was 10000 fold.

For the origin of these results see patent US20150104388A1.
